Tests used:
[1] = target: T1, Purified CEA (Biodesign International) (UniProt P06731 35-685); assay: plate assay: CEA immobilized at 5 ug/ml, serially diluted B-Per extract, bound CAB read by nitrocefin hydrolysis at 490 nm
T1 construct: Bought purified antigen, immobilized on 96-well plates at 5 ug/ml; also called carcinoembryonic antigen; target protein CEA
T1 sequence: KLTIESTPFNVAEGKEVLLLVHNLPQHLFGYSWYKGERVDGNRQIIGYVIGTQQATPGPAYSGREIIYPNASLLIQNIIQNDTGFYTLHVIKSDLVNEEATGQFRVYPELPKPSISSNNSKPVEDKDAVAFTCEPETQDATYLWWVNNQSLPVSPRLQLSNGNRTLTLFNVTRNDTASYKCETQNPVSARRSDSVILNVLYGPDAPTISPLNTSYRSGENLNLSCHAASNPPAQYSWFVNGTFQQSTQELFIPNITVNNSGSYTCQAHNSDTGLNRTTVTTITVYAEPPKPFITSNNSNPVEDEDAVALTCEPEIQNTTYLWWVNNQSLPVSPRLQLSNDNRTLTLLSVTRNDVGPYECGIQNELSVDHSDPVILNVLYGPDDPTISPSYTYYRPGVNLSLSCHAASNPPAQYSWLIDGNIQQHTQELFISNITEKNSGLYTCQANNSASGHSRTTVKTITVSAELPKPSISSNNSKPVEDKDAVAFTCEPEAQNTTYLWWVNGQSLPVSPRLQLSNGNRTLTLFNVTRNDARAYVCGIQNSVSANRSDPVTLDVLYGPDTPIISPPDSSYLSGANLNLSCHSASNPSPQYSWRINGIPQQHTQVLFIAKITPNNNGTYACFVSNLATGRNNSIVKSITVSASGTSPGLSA

[2] = target: T1, Purified CEA (Biodesign International); assay: plate assay: purified CEA immobilized at 5 ug/ml, 2-fold dilutions of purified CAB1.11i, bound BLA activity read with nitrocefin at 490 nm

B1: CAB1.11 molecule (scFv)
chain: DIVLTQSPASLSVSLGQRATMSCRAGESVDIFGVGFLHWYQQKPGQPPKLLIYRASNLESGIPVRFSGTGSGTDFTLIIDPVEADDVATYYCQQTNEDPYTFGGGTKLEIKGGGGSGGGGSGGGGSGGGGSGGGGSGGGGSEVQLQQSGAELVEPGASVKLSCTASGFNIKDTYMHWVKQRPEQGLEWIGRIDPANGNSKYVPKFQGKATITADTSSNTAYLQLTSLTSEDTAVYYCAPFGYYVSDYAMAYWGQGTSVTVSSTPVSEKQLAEVVANTITPLMKAQSVPGMAVAVIYQGKPHYYTFGKADIAANKPVTPQTLFELGSISKTFTGVLGGDAIARGEISLDDAVTRYWPQLTGKQWQGIRMLDLATYTAGGLPLQVPDEVTDNASLLRFYQNWQPQWKPGTTRLYANASIGLFGALAVKPSGMPYEQAMTTRVLKPLKLDHTWINVPKAEEAHYAWGYRDGKAVRVSPGMLDAQAYGVKTNVQDMANWVMANMAPENVADASLKQGIALAQSRYWRIGSMYQGLGWEMLNWPVEANTVVETSFGNVALAPLPVAEVNPPAPPVKASWVHKTGSTGGFGSYVAFIPEKQIGIVMLANTSYPNPARVEAAYHILEALQ
notes: scFv-BLA fusion; also called HR14.8; clone HR14.8
B1: binds [1].

B2: CAB1.11i molecule (scFv)
chain: DIVLTQSPASLSVSLGQRATMSCRAGESVDIFGVGFLHWYQQKPGQPPKLLIYRASNLESGIPVRFSGTGSGTDFTLIIDPVEADDVATYYCQQTNEDPYTFGGGTKLEIKGGGGSGGGGSGGGGSGGGGSGGGGSGGGGSEVQLQQSGAELVEPGASVKLSCTASGFNIKDTYMHWVKQRPEQGLEWIGRIDPANGNSKYVPKFQGKATITADTSSNTAYLQLTSLTSEDTAVYYCAPFGYYVSDYAMAYWGQGTSVTVSSTPVSEKQLAEVVANTITPLMAAQSVPGMAVAVIYQGKPHYYTFGKADIAANKPVTPQTLFELGSISKTFTGVLGGDAIARGEISLDDAVTRYWPQLTGKQWQGIRMLDLATYTAGGLPLQVPDEVTDNASLLRFYQNWQPQWKPGTTRLYANASIGLFGALAVKPSGMPYEQAMTTRVLKPLKLDHTWINVPKAEEAHYAWGYRDGKAVRVSPGMLDAQAYGVKTNVQDMANWVMANMAPENVADASLKQGIALAQSRYWRIGSMYQGLGWEMLNWPVEANTVVETSFGNVALAPLPVAEVNPPAPPVKASWVHKTGSTGGFGAYVAFIPEKQIGIVMLANTSYPNPARVEAAYHILEALQ
notes: Single-chain fusion of a T84.66-derived anti-CEA scFv (vL-(GGGGS)6-vH) to deimmunized beta-lactamase (BLA); also called encoded by plasmid pHR19.2
B2: binds [2].

Reference: US8088609 (DANISCO US, dated 2012)
